In the supplement of paper PMC9732359:
± gives the uncertainty stated by the source.

Experiment: protein stability index of a GFP-peptide fusion (yeast GPS) (PSI 1-4); higher = more stable; sorted into four equal gates, so the index is relative within each strain
Procedure, shortened: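 The protein stability index of a peptide was calculated by multiplying its read frequency in each gate by that gate's number and adding the products. The peptides were tiled 17-residue stretches of yeast proteins, fused downstream of GFP on a Cherry-expressing plasmid and carried in yeast as a pooled library. Mid-log cultures in leucine-free medium were sorted into four equal gates by GFP/Cherry ratio, and each gate's plasmids were PCR-amplified and Illumina-sequenced.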

Row | Sequence | protein stability index (doa10∆) | protein stability index (pdr5∆) | protein stability index (san1∆) | protein stability index (ubr1∆)
1 | RRVNQAIALLTIGAREA [RPS5] | 3.21 ± 0.21 | 2.72 ± 0.21 | 2.6 ± 0.24 | 3.36 ± 0.22
2 | DEDWSVRIDKALELDDT [ECM29] | 2.76 ± 0.18 | 3.38 ± 0.17 | – | –
3 | FRENMSKEETVDFIKHS [PRE3] | 3.11 ± 0.086 | 3.19 ± 0.086 | 3.16 ± 0.066 | 3.24 ± 0.085
4 | HESYCLPMDTNLFKINS [YMR129W/POM152] | 1.54 ± 0.055 | 1.72 ± 0.039 | 1.74 ± 0.13 | 1.37 ± 0.067
5 | KITIGIQRTTESLILKW [RGR1] | 2.33 ± 0.086 | 1.6 ± 0.067 | 1.49 ± 0.078 | 1.66 ± 0.04
6 | LQSDKNFLDNCLFENDL [ITC1] | 2.13 ± 0.079 | 3.03 ± 0.073 | 2.92 ± 0.055 | 3.01 ± 0.059
7 | NIYNFSPSERIEPLEIN [BRR2] | 2.39 ± 0.064 | 2.78 ± 0.051 | 1.93 ± 0.056 | 2.2 ± 0.05
8 | EVRAISVAKIRFPETMD [RPO21] | 3.08 ± 0.1 | 2.87 ± 0.087 | 2.73 ± 0.079 | 3.28 ± 0.044
9 | ANVDQISFLEPINLKFL [YMR129W/POM152] | 2.75 ± 0.057 | 2.89 ± 0.077 | 2.92 ± 0.054 | 2.91 ± 0.048
10 | CTNLTNRTLYELADLPK [GRR1] | 2.93 ± 0.058 | 3.05 ± 0.048 | 2.92 ± 0.036 | 3.1 ± 0.046
11 | LLSDPTITIKSYHLWPS [PRP8] | 2.33 ± 0.063 | 2.62 ± 0.073 | 2.53 ± 0.094 | 2.51 ± 0.077
12 | AAPSAADIKAVVESVGA [RPP2B] | 3.08 ± 0.1 | 3.06 ± 0.073 | 3.05 ± 0.094 | 3.29 ± 0.084
13 | CVKNHGQSSSIQSSLMT [YCS4] | 2.48 ± 0.17 | 2.67 ± 0.14 | 2.83 ± 0.052 | 3.05 ± 0.1
14 | RKCETQKQWDDIAFVLN [YCS4] | 2.96 ± 0.076 | 3.01 ± 0.076 | 2.7 ± 0.12 | 3.13 ± 0.078
15 | LGAVAGLIPYPHHNQSP [RET1] | 2.65 ± 0.094 | 2.97 ± 0.071 | 2.69 ± 0.055 | 2.94 ± 0.065
16 | LIRPSSKVIIKFLQVMQ [RPS22A] | 1.86 ± 0.036 | 1.82 ± 0.03 | 2.02 ± 0.052 | 2.25 ± 0.034
17 | HHDGKLWNLNAYRTDVI [PRP8] | 2.94 ± 0.082 | 3.28 ± 0.092 | 3.04 ± 0.074 | 3.07 ± 0.071
18 | YTRYLDRIYMLFHFEED [PRP8] | 1.68 ± 0.059 | 1.4 ± 0.051 | 1.5 ± 0.12 | 1.61 ± 0.043
19 | LYVVGLFDTYHASKAIG [RRP6] | 1.91 ± 0.045 | 2.38 ± 0.043 | 1.88 ± 0.069 | 2.49 ± 0.035
20 | SLSDEVMRNEIRITSLQ [SIR4] | 2.92 ± 0.065 | 2.48 ± 0.064 | 2.81 ± 0.067 | 2.52 ± 0.077
21 | RRRKGISTGGFMSNDGP [SNU114] | 1.46 ± 0.086 | 1.47 ± 0.1 | 1.18 ± 0.14 | 1.33 ± 0.063
22 | RAAKLAAPENEKPAPVR [RPS15] | 3.21 ± 0.1 | 3.15 ± 0.11 | 2.89 ± 0.073 | 3.36 ± 0.082
23 | RHHRKTEKEEDAELMAD [ISW2] | 3.5 ± 0.13 | 3.31 ± 0.11 | 3.15 ± 0.091 | 3.32 ± 0.089
24 | KASVLEISPQDSIASVL [GAL11] | 3.27 ± 0.09 | 3.39 ± 0.066 | 3.13 ± 0.083 | 3.13 ± 0.086
25 | ETVFNYRLMIKRLNFSF [GRR1] | 1.84 ± 0.099 | 1.3 ± 0.068 | 1.27 ± 0.12 | 1.31 ± 0.074
26 | LKSSLADVLSILAMTYS [RPN1] | 1.7 ± 0.062 | 2.02 ± 0.12 | 1.89 ± 0.19 | 1.96 ± 0.059
27 | NIPKPLNSYHIKNGRIY [RGR1] | 2.28 ± 0.04 | 2.18 ± 0.03 | 1.97 ± 0.047 | 2.14 ± 0.027

Row | Sequence | protein stability index (doa10∆) | protein stability index (pdr5∆) | protein stability index (san1∆) | protein stability index (ubr1∆)
28 | FKSTMLQVSEKDLFELE [ARP7] | 1.25 ± 0.089 | 2.49 ± 0.11 | 1.1 ± 0.16 | 1.4 ± 0.098
29 | LLTNDESAFENLMGNRN [SNF12] | 2.96 ± 0.14 | 2.7 ± 0.12 | 3 ± 0.19 | 3.14 ± 0.078
30 | SVINVSAQRDRRYRKRV [RPS17A] | 2.34 ± 0.06 | 2.06 ± 0.063 | 1.71 ± 0.1 | 2.06 ± 0.08
31 | ANVIKALAFCEIGITQQ [RRP4] | 1.36 ± 0.07 | 2 ± 0.079 | 1.76 ± 0.16 | 2.26 ± 0.075
32 | GNENFEDFDVEHFSDEE [RPO26] | 3.05 ± 0.088 | 3.1 ± 0.088 | 2.95 ± 0.085 | 3.17 ± 0.082
33 | NAAGNTPDATKIKAILE [RPP2A] | 3.13 ± 0.089 | 3.32 ± 0.092 | 2.99 ± 0.085 | 3.19 ± 0.054
34 | KGIAKEHAKWGPAAAIE [RPB3] | 3.11 ± 0.12 | 3.32 ± 0.1 | 3.06 ± 0.13 | 2.9 ± 0.055
35 | EENEDNDGNNRTNNVPM [NUT1] | 3.11 ± 0.12 | 3.39 ± 0.11 | 3.31 ± 0.16 | 3.56 ± 0.089
36 | VTLKGAKALESLASCLR [POP1] | 3.12 ± 0.073 | 2.94 ± 0.069 | 2.54 ± 0.078 | 2.74 ± 0.07
37 | TQQAVNLEKNYLAKLSK [IRR1] | 3.06 ± 0.27 | 3.34 ± 0.23 | – | 2.91 ± 0.14
38 | LAVEDKPSPIDSGIGSN [CSL4] | 3.02 ± 0.069 | 3.27 ± 0.062 | 3.06 ± 0.052 | 3.08 ± 0.044
39 | QKVSQLESADKQLEKRD [POP4] | 3.26 ± 0.069 | 3.35 ± 0.083 | 3.27 ± 0.07 | 3.35 ± 0.077
40 | IEQSITKNIPITHRDLH [SSN8] | 2.37 ± 0.047 | 2.92 ± 0.041 | 2.53 ± 0.046 | 2.78 ± 0.036
41 | DNSATSYYELETIIFDS [RRI1] | 3.19 ± 0.076 | 3.17 ± 0.055 | 3.11 ± 0.042 | 3.06 ± 0.041
42 | TLTELKDALSNSILSVR [SRB2] | 3.29 ± 0.068 | 3.38 ± 0.082 | 3.21 ± 0.049 | 3.37 ± 0.09
43 | AHELQSEDVSRDHEKDT [YIL149C/MLP2] | 2.38 ± 0.085 | 2.73 ± 0.072 | 2.8 ± 0.061 | 2.68 ± 0.082
44 | ENTVGLISGAGANPRVL [RPN10] | 1.72 ± 0.052 | 1.46 ± 0.057 | 1.86 ± 0.085 | 1.4 ± 0.044
45 | DHFLSMCQNPMQKPVPF [FAS1] | 2.93 ± 0.18 | 3.01 ± 0.14 | – | 2.42 ± 0.081
46 | RYISTLTLYLFQDYLTQ [IRR1] | 2.14 ± 0.2 | 1.76 ± 0.08 | 3.14 ± 0.24 | 3.38 ± 0.27
47 | RSMSGQPPTNVQPTIGQ [SNF5] | 2.74 ± 0.065 | 2.97 ± 0.071 | 3.01 ± 0.074 | 3.15 ± 0.036
48 | FNFVLLGQIGACHVEVP [COB] | 1.43 ± 0.085 | 1.88 ± 0.071 | 1.2 ± 0.17 | 1.6 ± 0.089
49 | DISGTMSGGGNHVAKGL [SMC4] | 3.19 ± 0.2 | – | 3.25 ± 0.13 | –
50 | CRNDAVNWLAYTYLYVR [BRR2] | 3.25 ± 0.063 | 3.54 ± 0.046 | 3.18 ± 0.046 | 3.21 ± 0.043
51 | LTRFSHDADLEVSMNSI [RPN1] | 3.24 ± 0.099 | 3.14 ± 0.056 | 3.08 ± 0.05 | 3.1 ± 0.037
52 | RRQAVDVSPLRRVNQAI [RPS5] | 2.63 ± 0.083 | 2.62 ± 0.094 | 2.69 ± 0.078 | 2.75 ± 0.083
53 | PPLLVYKWTQGINNLSE [PRP8] | 3.09 ± 0.12 | 3.11 ± 0.073 | 3.29 ± 0.076 | 3.25 ± 0.098
